Measurements as given in patent publication US12576154B2, “Conjugates of PSMA-binding moieties with cytotoxic agents” (PHILOCHEM AG, priority 2022, dated 2026).

Assays:
LNCaP tumor (PSMA+) = experiment: MMAE release from conjugates in LNCaP tumor model (biodistribution by LC-MS); assay type: in vivo, mice; conditions: 24 h after intravenous injection, LNCaP tumor model, n=3
Experimental: LNCaP tumor cells were grown to 80% confluence and detached with Trypsin-EDTA 0.05%. Cells were resuspended in PBS at a density of 30×10^6 cells/mL. The cell suspension was further diluted 1:1 with Matrigel. 200 μL of LNCaP cells (3×10^6 cells) were injected subcutaneously in the left flank of female athymic Balb/c AnNRj-Foxn1 mice (6 to 8 weeks of age). Tumors were grown until volumes of 200-300 mm^3 were observed.
0.1 ml of 50 μM solutions (2% DMSO, PBS) of the four Conjugates (1-4) were injected intravenously into 4 of the mice (1 mouse per SMDC). The animals were sacrificed after 24 h and the following organs were extracted: blood, LNCaP tumor (PSMA+), heart, lungs, liver, kidney, spleen, stomach. The blood fraction was centrifuged, and the plasma (supernatant) was extracted. The organs were preserved at −80° C. before being used for further analysis.
Frozen plasma or mouse tissues (˜50 mg) were thawed and treated with 600 μL of an aqueous solution containing 95% acetonitrile (ACN), and 0.1% HCOOH were added to induce protein precipitation. 50 μL of a solution of d8-MMAE, 50 nM) was added as internal standard. Samples were then homogenized with a tissue lyser for 15 minutes at 30 Hz. After homogenization, samples were centrifuged (21'000 g for 10 minutes). The supernatant was collected and dried at room temperature with a rotary evaporator. Pellets were then resuspended in 1 mL of an aqueous solution containing 3% ACN and 0.1% of TFA and subsequently purified on Oasis HLB SPE columns. Eluates were dried under vacuum at room temperature. […] Peak areas of analytes and internal standards were integrated, and corresponding ratios were calculated. The ratios were then transformed into pmol/g of wet tissue using single-concentration external calibration points and corrected by the total weight of the sample analysed. The percentage of injected dose per gram (% ID/g) was finally calculated by normalizing the value based on the total dose injected into the mouse. […]

HT1080.hPSMA tumor = experiment: MMAE release from conjugates in HT1080.hPSMA tumor model (comparison and timepoint study); assay type: in vivo, mice; conditions: 250 nmol/kg; for MMAE release compared with Conjugate 1: 24 h after intravenous injection, HT1080.hPSMA tumor model
Experimental: (§1) HT1080.hPSMA tumor cells were grown to 90% confluence and detached with Trypsin-EDTA 0.05%. Cells were resuspended in Hank's Balanced Salt Solution (HBSS) at a density of 5×10^7 cells/mL. 100 μL of HT1080.hPSMA cells (5×10^6 cells) were injected subcutaneously in the right flank of female athymic Balb/c AnNRj-Foxn1 mice (6 to 8 weeks of age). Tumors were grown until ˜250 mm^3 volume (average).
Comparison study: 0.1 mL of 50 μM solutions (2% DMSO, PBS, 250 nmol/kg) of the four conjugates (1 to 4) were injected intravenously. The animals were sacrificed in groups of 3 after 24 h, and blood and the following organs were extracted: HT1080.hPSMA tumor, heart, lungs, liver, kidney, spleen, stomach. The blood fraction was centrifuged, and the plasma (supernatant) was extracted. The organs were stored at −80° C. before being used for further analysis.
Timepoint study: 0.1 mL of a 50 μM solution (2% DMSO, PBS, 250 nmol/kg) of conjugate 1 was injected intravenously into the tail vein of the mice. The animals were sacrificed in groups of 3 after 6 h, 24 h, 48 h, and 72 h, and blood and the following organs were extracted: HT1080.hPSMA tumor, heart, lungs, liver, kidney, spleen, stomach. The blood fraction was centrifuged, and the plasma (supernatant) was extracted. The organs were stored at −80° C. before being used for further analysis.
Frozen plasma (50 μL) and mouse tissues (˜50 mg) were thawed, and 500 μL of PBS was added. Samples were kept on ice, and 50 μL solution of internal standard (d8-MMAE, 50 nM) was added. Samples were then homogenized at 4° C. with a tissue lyser for 2 minutes at 30 Hz for 4 cycles. After homogenization, samples were centrifuged (21'000 g, 10 min). Subsequently, 100 μL of supernatants were collected and added to 900 μL of acetonitrile (ACN) to induce protein precipitation. After centrifugation (21'000 g, 10 min), 800 μL of supernatants were collected and dried at room temperature with a vacuum centrifuge. Pellets were then resuspended in 20 μL of an aqueous solution containing 3% ACN and 0.1% of HCOOH, and 5 μL were injected into the UHPLC-MS system. Chromatographic separation was carried out on a Hypersil Gold C18 column (100 mm×2.1 mm, 1.9 μm particle size, 175 Å pore size) column temperature was set at 50° C. and a flow rate of 700 μL/min with a gradient program from 95% A (water+0.1% HCOOH), 5% B (ACN+0.1% HCOOH) to 35% of A in 2.5 minutes, from 35% A to 5% A in 0.4 minutes and 5% A was kept for 1.3 minutes before reconditioning at 95% A. The LC system was coupled to a Q-Exactive mass spectrometer via an Ion Max HESI Source. Ionization was carried out with a spray voltage of 3.5 kV; Sheath gas 40 units; Aux gas 10 units; capillary temperature of 380° C.; Aux gas temperature 450° C.; S-lens RF level 60. The mass spectrometer was operating in targeted Single Ion Monitoring mode (t-SIM) following the molecular ion 718.5113 m/z. The detector was working in positive ionization mode with the following parameters: resolution 70'000 (FWHM at 200 m/z); AGC target of 5×10^4; maximum injection time of 200 ms; isolation window 14 m/z; isolation offset 5 m/z. Peak areas of analytes and internal standards were integrated, and corresponding ratios were calculated. The ratios were then transformed into pmol/g of wet tissue using single-concentration external calibration points and corrected by the total weight of the sample analysed. The percentage of injected dose per gram (% ID/g) was finally calculated by normalizing the value based on the total dose injected into the mouse. Data analysis was performed with Skyline v22.2.0.351.

HT1080.hPSMA xenografts [1] = experiment: Comparative therapy experiment in mice bearing HT1080.hPSMA xenografts (tumor volume); assay type: in vivo; conditions: 250 nmol/kg i.v. on days 8, 10, 12 after tumor implantation, n=5
Experimental: as §1, with “a” for “a density of”, “cells/mL density.” for “cells/mL.”, “volumes of […].” for “˜250 mm^3 volume (average).”
Tumor-bearing mice were randomized into groups of 5 and 0.1 mL of 50 μM solutions (2% DMSO, PBS, 250 nmol/kg) of the four conjugates (1 to 4), or saline solution (0.9% NaCl) was injected intravenously three times with 1-day break in between (days 8, 10, and 12 after tumor implantation).

HT1080.hPSMA xenografts [2] = experiment: Payload study and combination therapy with L19-IL2 in HT1080.hPSMA tumor model (tumor volume); assay type: in vivo, mice; conditions: conjugates 250 nmol/kg i.v. days 7 and 11; L19-IL2 2.5 mg/kg i.v. days 8, 10, 12; n=3/4
Experimental: as §1, with “a” for “a density of”, “cells/mL density.” for “cells/mL.”, “an average volumes of ˜100” for “˜250”, “was reached.” for “volume (average).”
Tumor-bearing mice were randomized into groups of 3 or 4 animals. A 50 μM solution (2% DMSO, 250 nmol/kg; 100 μL) of Conjugate 1, 5, or 6, L19-IL2 (SEQ ID NO: 10, 0.5 mg/mL, 2.5 mg/kg; 100 μL), PBS (100 μL), or L19-IL2 buffer (NaH2PO4 6.7 mM, NaCl 20 mM, KCl 1.8 mM, Mannitol 133 mM, Tween80 0.1% v/v, Glycerol 1% w/v; 100 μL) was injected intravenously (i.e., systemic administration through tail-vein) with the following schedule:
Groups of Conjugates 1, 5, or 6: two separate injections with a 3-day break in between (day 7 and day 11 after tumor implantation).
L19-IL2 group: three separate injections with a 1-day break in between (day 8, day 10, and day 12 after tumor implantation).
Combination therapy groups: two separate injections of Conjugate 1, 5, or 6 with a 3-day break in between (day 7 and day 11 after tumor implantation) and three separate injections of L19-IL2 with a 1-day break in between (day 8, day 10, and day 12 after tumor implantation). […]

Row | Compound | MMAE release, experiment repeated with three mice each (LNCaP tumor (PSMA+)) | MMAE release compared with Conjugate 1 (HT1080.hPSMA tumor) | MMAE release in tumor (HT1080.hPSMA tumor; 24 hours after intravenous injection, HT1080.hPSMA tumor, n=3) | Therapeutic efficacy (tumor volume change) (HT1080.hPSMA xenografts [1]) | In vivo anti-tumor activity, monotherapy (tumor volume) (HT1080.hPSMA xenografts [2])
1 | CC[C@H](C)[C@@H]([C@@H](CC(=O)N1CCC[C@H]1[C@H](OC)[C@@H](C)C(=O)N[C@H](C)[C@@H](O)c1ccccc1)OC)N(C)C(=O)[C@@H](NC(=O)[C@H](C(C)C)N(C)C(=O)OCc1ccc(NC(=O)[C@H](CCCNC(N)=O)NC(=O)[C@@H](NC(=O)CCCCCN2C(=O)CC(SC[C@H](N)C(=O)NCCCCCC(=O)NC[C@H]3CC[C@H](C(=O)N[C@@H](Cc4ccc5ccccc5c4)C(=O)NCCCC[C@H](NC(=O)N[C@@H](CCC(=O)O)C(=O)O)C(=O)O)CC3)C2=O)C(C)C)cc1)C(C)C (stereo partly drawn) [Conjugate 2] | confirmed | significantly lower or no release of MMAE | 1.7 % ID/g | tumor growth retardation but did not lead to shrinkage of the tumor mass | 
2 | CC[C@H](C)[C@@H]([C@@H](CC(=O)N1CCC[C@H]1[C@H](OC)[C@@H](C)C(=O)N[C@H](C)[C@@H](O)c1ccccc1)OC)N(C)C(=O)[C@@H](NC(=O)[C@H](C(C)C)N(C)C(=O)OCCSSC[C@H](N)C(=O)NCCCCCC(=O)NC[C@H]1CC[C@H](C(=O)N[C@@H](Cc2ccc3ccccc3c2)C(=O)NCCCC[C@H](NC(=O)N[C@@H](CCC(=O)O)C(=O)O)C(=O)O)CC1)C(C)C [Conjugate 3] |  | significantly lower or no release of MMAE |  | didn't display any therapeutic efficacy | 
3 | CC[C@H](C)[C@@H]([C@@H](CC(=O)N1CCC[C@H]1[C@H](OC)[C@@H](C)C(=O)N[C@H](C)[C@@H](O)c1ccccc1)OC)N(C)C(=O)[C@@H](NC(=O)[C@H](C(C)C)N(C)C(=O)CCCCCN1C(=O)CC(SC[C@H](N)C(=O)NCCCCCC(=O)NC[C@H]2CC[C@H](C(=O)N[C@@H](Cc3ccc4ccccc4c3)C(=O)NCCCC[C@H](NC(=O)N[C@@H](CCC(=O)O)C(=O)O)C(=O)O)CC2)C1=O)C(C)C (stereo partly drawn) [Conjugate 4] |  | significantly lower or no release of MMAE |  | didn't display any therapeutic efficacy | 
4 | L19-IL2: Immunocytokine: L19-derived scFv (binds ED-B domain of fibronectin) linked to IL2, SEQ ID NO: 10 [Conjugate L19-IL2] |  |  |  |  | only a slight tumor growth retardation
